In the supplement of paper PMC10065799, “High-throughput profiling of sequence recognition by tyrosine kinases and SH2 domains using bacterial peptide display” (eLife, 2023):

Key:
[1] = target: EPHB2 (UniProt P29323); assay: phosphorylation enrichment, bacterial display (enrichment ratio); higher = better substrate or ligand; peptides without Tyr show the background
[2] = system: Fer (mouse); assay: as above
[3] = target: EPHB1 (UniProt P54762); assay: as above
[4] = target: Fes (UniProt P07332); assay: as above
[5] = target: Fyn (UniProt P06241); assay: as above
[6] = target: Jak2 (UniProt O60674); assay: as above
[7] = system: AncSZ; assay: as above
[8] = target: MERTK (UniProt Q12866); assay: as above
[9] = target: FGFR3 (UniProt P22607); assay: as above
[10] = system: c-Abl (mouse); assay: as above
[11] = target: FGFR1 (UniProt P11362); assay: as above
[12] = target: Hck (UniProt P08631); assay: as above
[13] = system: c-Src; assay: as above
[14] = target: SHP2-C SH2; assay: SH2 binding enrichment of the phosphorylated peptide, bacterial display (enrichment ratio); higher = better substrate or ligand; peptides without Tyr show the background
[15] = target: c-Src SH2; assay: as above
[16] = target: Grb2 SH2 (UniProt P62993); assay: as above
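Wherever SH2 binding enrichment of the phosphorylated peptide, bacterial display is given: peptide library displayed on the E. coli surface as eCPX fusions, selected cells deep-sequenced, score is each peptide's frequency after selection divided by its frequency in the input.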
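Wherever phosphorylation enrichment, bacterial display is given: 11-residue human phosphosite peptides and single-mutation variants displayed on the E. coli surface, counted by deep sequencing, each peptide's frequency after selection divided by its frequency in the unselected input library; frequency after pTyr selection over input frequency; kinase dosed for 20-30% of maximal phosphorylation in three min.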

Chain of MERTK (Q12866 whole entry, looked up): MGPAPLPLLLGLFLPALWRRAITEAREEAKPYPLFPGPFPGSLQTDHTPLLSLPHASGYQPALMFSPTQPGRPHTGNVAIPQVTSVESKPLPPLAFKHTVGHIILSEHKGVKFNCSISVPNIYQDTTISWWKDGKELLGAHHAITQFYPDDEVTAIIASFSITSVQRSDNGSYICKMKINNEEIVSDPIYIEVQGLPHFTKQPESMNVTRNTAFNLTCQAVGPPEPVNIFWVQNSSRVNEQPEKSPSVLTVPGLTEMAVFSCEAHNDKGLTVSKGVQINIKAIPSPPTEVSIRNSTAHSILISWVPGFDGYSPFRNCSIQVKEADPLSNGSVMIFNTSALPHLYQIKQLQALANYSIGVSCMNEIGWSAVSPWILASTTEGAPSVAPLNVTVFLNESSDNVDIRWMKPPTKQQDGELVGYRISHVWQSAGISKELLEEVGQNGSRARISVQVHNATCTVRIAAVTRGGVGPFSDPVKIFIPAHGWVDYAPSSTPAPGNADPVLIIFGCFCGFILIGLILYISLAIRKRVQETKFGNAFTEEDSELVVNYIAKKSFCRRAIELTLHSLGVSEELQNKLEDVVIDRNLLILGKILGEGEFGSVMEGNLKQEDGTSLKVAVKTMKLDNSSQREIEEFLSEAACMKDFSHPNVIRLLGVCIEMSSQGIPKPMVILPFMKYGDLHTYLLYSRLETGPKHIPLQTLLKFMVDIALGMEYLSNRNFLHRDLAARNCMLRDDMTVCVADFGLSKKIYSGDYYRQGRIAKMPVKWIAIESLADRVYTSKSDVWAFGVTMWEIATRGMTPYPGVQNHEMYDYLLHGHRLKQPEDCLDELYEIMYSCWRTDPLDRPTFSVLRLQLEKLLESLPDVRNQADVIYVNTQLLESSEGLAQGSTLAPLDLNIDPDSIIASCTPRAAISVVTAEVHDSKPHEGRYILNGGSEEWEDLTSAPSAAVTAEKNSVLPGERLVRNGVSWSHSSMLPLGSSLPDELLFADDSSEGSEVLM
Chain of FGFR1 (P11362 whole entry, looked up): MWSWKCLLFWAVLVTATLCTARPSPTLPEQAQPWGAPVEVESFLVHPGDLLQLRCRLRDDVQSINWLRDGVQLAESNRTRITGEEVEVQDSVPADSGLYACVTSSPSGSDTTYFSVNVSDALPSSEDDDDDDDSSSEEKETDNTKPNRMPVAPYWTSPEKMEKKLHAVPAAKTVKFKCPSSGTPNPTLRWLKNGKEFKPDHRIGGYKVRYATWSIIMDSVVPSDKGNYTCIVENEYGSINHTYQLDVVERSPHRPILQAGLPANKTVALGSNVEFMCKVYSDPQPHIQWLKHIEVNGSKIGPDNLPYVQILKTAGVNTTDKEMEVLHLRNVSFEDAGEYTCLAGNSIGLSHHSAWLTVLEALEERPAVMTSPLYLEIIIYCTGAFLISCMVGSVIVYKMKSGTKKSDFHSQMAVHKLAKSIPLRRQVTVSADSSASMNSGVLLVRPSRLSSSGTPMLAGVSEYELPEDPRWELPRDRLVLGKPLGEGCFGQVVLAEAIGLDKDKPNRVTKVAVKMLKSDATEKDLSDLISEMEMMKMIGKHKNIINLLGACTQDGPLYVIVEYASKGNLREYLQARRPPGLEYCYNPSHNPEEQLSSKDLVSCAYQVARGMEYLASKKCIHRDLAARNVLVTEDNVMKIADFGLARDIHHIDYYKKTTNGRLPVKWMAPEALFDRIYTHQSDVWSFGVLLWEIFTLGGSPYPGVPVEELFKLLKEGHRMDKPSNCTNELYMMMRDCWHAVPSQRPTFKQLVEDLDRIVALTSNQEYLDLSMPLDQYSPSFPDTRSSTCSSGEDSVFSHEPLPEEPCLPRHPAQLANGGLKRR
Chain of EPHB2 (P29323 whole entry, looked up): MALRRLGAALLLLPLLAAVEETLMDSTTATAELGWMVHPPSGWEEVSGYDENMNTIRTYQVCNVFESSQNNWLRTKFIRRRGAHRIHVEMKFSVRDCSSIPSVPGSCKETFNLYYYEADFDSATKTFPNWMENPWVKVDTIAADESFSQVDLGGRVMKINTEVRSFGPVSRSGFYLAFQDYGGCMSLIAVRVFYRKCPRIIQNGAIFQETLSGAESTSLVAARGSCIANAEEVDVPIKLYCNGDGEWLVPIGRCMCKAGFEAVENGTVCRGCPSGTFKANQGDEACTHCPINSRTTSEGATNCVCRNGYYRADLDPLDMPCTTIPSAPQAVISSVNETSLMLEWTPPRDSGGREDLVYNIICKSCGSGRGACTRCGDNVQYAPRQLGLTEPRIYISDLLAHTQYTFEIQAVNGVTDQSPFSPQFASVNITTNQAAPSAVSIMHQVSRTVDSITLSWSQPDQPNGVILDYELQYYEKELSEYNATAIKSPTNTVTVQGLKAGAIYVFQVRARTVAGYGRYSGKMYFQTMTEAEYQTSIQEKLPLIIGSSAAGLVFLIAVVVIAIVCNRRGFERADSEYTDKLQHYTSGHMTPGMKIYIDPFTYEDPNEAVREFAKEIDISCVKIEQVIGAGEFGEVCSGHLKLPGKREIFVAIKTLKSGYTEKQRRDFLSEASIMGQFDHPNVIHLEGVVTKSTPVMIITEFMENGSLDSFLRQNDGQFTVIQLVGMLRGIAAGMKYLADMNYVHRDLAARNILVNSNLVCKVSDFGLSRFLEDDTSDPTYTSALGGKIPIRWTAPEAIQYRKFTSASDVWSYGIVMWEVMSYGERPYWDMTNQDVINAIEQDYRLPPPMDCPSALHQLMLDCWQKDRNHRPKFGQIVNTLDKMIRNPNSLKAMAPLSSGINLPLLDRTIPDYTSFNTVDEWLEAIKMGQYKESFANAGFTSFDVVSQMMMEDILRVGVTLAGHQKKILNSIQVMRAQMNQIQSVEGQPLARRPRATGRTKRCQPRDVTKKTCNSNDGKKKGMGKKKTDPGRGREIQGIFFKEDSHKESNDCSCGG
Chain of Fes (P07332 whole entry, looked up): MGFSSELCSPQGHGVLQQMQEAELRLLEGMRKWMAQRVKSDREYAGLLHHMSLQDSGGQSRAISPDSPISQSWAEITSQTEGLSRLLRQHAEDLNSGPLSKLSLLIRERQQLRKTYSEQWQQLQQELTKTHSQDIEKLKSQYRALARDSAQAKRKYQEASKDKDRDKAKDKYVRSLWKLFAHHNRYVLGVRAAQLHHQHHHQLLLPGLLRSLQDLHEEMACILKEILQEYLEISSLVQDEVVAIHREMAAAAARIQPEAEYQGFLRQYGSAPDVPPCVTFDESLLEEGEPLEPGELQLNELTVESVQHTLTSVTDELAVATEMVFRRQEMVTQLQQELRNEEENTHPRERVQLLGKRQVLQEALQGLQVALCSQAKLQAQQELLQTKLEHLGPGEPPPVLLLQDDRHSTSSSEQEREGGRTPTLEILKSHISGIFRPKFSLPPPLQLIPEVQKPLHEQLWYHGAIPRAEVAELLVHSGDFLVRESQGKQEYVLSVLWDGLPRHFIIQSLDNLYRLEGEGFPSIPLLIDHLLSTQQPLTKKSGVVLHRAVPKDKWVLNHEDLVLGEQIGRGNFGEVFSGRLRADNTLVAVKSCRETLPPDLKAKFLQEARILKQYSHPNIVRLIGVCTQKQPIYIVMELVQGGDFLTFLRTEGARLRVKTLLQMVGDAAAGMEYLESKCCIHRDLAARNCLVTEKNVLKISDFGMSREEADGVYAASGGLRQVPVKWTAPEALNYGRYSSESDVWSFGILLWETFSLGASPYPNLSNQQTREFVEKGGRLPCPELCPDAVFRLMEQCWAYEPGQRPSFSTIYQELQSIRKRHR
Chain of Jak2 (O60674 whole entry, looked up): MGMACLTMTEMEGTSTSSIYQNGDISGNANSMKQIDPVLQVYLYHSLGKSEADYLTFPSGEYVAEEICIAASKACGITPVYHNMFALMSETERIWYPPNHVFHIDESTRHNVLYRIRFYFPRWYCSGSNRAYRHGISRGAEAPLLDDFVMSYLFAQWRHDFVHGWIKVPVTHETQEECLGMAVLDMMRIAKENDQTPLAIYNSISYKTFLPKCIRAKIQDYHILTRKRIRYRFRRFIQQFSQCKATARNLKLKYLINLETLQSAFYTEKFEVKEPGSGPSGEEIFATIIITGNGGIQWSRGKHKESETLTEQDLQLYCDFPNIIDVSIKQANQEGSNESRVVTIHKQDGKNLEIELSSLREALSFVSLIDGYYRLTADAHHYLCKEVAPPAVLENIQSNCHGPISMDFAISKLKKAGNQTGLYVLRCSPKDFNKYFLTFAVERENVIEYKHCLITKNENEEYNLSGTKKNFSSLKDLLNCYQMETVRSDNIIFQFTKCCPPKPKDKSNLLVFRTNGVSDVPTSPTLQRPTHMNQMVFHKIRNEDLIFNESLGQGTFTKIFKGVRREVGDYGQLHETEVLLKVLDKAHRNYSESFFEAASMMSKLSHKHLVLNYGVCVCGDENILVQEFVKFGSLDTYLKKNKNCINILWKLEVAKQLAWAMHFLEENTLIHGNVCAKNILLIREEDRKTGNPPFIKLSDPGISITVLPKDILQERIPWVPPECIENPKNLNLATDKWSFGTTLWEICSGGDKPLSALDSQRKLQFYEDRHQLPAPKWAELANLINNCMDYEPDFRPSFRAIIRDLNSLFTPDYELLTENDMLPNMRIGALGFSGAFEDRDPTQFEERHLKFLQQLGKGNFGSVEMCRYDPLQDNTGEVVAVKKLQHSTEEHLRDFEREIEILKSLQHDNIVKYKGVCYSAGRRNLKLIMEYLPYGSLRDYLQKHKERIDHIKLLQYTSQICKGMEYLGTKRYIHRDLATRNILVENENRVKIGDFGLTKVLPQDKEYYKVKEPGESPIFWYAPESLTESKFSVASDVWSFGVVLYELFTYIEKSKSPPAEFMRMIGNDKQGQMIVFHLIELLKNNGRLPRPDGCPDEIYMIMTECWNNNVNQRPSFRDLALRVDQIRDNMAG

| SH2 binding enrichment [14] | SH2 binding enrichment [15] | SH2 binding enrichment [16] | Sequence | phosphorylation enrichment [1] | phosphorylation enrichment [2] | phosphorylation enrichment [3] | phosphorylation enrichment [4] | phosphorylation enrichment [5] | phosphorylation enrichment [6] | phosphorylation enrichment [7] | phosphorylation enrichment [8] | phosphorylation enrichment [9] | phosphorylation enrichment [10] | phosphorylation enrichment [11] | phosphorylation enrichment [12] | phosphorylation enrichment [13] |
| --- | --- | --- | --- | --- | --- | --- | --- | --- | --- | --- | --- | --- | --- | --- | --- | --- |
| 0.549 | 0.504 | 0.713 | AALSAYAPQRP [PTPRN2_Y249_A251P] | 0.527 | 0.541 | 0.54 | 1.08 | 0.733 | 0.803 | 0.853 | 0.543 | 0.584 | 0.791 | 0.605 | 0.529 | 0.521 |
| 0.75 | 0.835 | 1.03 | ACCLLYHGDVV [TUBA4A_Y319_R320H] | 0.539 | 1.88 | 0.551 | 0.887 | 0.507 | 0.797 | 0.918 | 0.739 | 1.45 | 0.69 | 2.49 | 0.632 | 5.43 |
| 0.849 | 0.776 | 1.05 | ACCLLYRGDVV [TUBA4A_Y319] | 0.557 | 0.758 | 0.507 | 0.889 | 0.565 | 0.853 | 0.947 | 0.709 | 1.34 | 0.482 | 3.27 | 0.645 | 5.88 |
| 1.11 | 0.632 | 1.07 | ACDALYPPGPP | 0.432 | 0.469 | 0.485 | 0.861 | 0.482 | 0.615 | 0.774 | 0.43 | 0.522 | 0.566 | 0.482 | 0.391 | 0.444 |
| 0.75 | 0.551 | 0.843 | ACQGKYTPSGQ [ALDOA_Y343] | 0.402 | 0.531 | 0.414 | 0.742 | 0.479 | 0.851 | 0.598 | 0.378 | 0.734 | 0.693 | 0.406 | 0.46 | 0.463 |
| 0.794 | 0.401 | 1.02 | ADEDIYGVLPA [LYNtide_2014] | 1.36 | 2.99 | 0.705 | 1.36 | 4.82 | 1.28 | 1.49 | 2.76 | 0.982 | 2.19 | 0.606 | 3.51 | 2.97 |
| 0.544 | 0.614 | 0.968 | ADFPDYKFRPR [SOX11_Y116_YF] | 0.422 | 0.369 | 0.378 | 0.697 | 0.472 | 0.728 | 1.07 | 0.413 | 0.58 | 0.403 | 0.455 | 0.501 | 0.357 |
| 0.58 | 0.55 | 0.78 | ADRARYSAFGG [RBM4_Y361] | 0.303 | 0.424 | 0.371 | 0.523 | 0.41 | 0.482 | 0.5 | 0.4 | 0.394 | 0.546 | 0.35 | 0.381 | 0.397 |
| 0.637 | 0.518 | 0.679 | AELKLYSGAQT [ZAP70_Y178_R175L] | 0.571 | 0.485 | 0.567 | 0.956 | 0.455 | 0.82 | 0.877 | 0.395 | 0.595 | 0.526 | 0.39 | 0.646 | 0.362 |
| 0.487 | 0.43 | 0.784 | AGIENYKSRFG [NKD2_Y256_T257K] | 0.377 | 0.409 | 0.451 | 0.486 | 0.356 | 0.537 | 0.578 | 0.412 | 0.452 | 0.512 | 0.357 | 0.517 | 0.363 |
| 0.546 | 0.433 | 0.905 | AHAGGYGAEAL [HBA1_Y25_E24G] | 0.482 | 0.398 | 0.436 | 0.665 | 0.433 | 0.559 | 0.63 | 0.438 | 0.489 | 0.599 | 0.421 | 0.454 | 0.385 |
| 0.563 | 0.493 | 0.83 | AHDGEYGAEAL [HBA1_Y25_A22D] | 0.62 | 0.534 | 0.556 | 1.08 | 0.552 | 0.819 | 0.97 | 0.451 | 0.645 | 0.608 | 0.513 | 0.445 | 0.424 |
| 1.5 | 1.67 | 1.08 | AIKSFYAALID [RYR1_Y2426_M2423K] | 1.23 | 0.479 | 1.25 | 0.981 | 0.504 | 0.667 | 0.882 | 2.53 | 0.628 | 0.719 | 0.553 | 0.758 | 0.481 |
| 1.47 | 0.778 | 0.978 | AIMSFYAALID [RYR1_Y2426] | 0.667 | 0.69 | 1.13 | 1.48 | 0.506 | 1.56 | 1.15 | 0.74 | 0.988 | 1.02 | 0.417 | 0.574 | 0.513 |
| 0.711 | 0.823 | 1 | AKLKDYYIFNK [CCDC42_Y149] | 0.594 | 0.457 | 0.449 | 0.635 | 0.515 | 0.605 | 0.596 | 0.704 | 2.16 | 0.65 | 3.4 | 0.503 | 0.808 |
| 1.21 | 3.49 | 0.839 | ALAAPYVLFPG [CEFIP_Y1332_YF] | 0.452 | 0.543 | 0.581 | 0.726 | 0.739 | 1.21 | 0.775 | 1.29 | 2.44 | 0.598 | 3.79 | 0.641 | 4.54 |
| 0.56 | 0.38 | 0.727 | ALADKYHGGGG [HBB_Y146_H144D] | 0.374 | 0.375 | 0.287 | 0.517 | 0.39 | 0.439 | 0.467 | 0.322 | 0.402 | 0.423 | 0.396 | 0.355 | 0.318 |
